In this assay the target is human VEGF-A165 (human).

“FcD2, monospecific fusion of hinge, Fc, linker and VEGFR1 D2 (from UniProt P17948 129-229) (Fc fusion)” showed an inhibition of VEGF-stimulated HUVEC growth (CellTiter-Glo) of 2.1 nM.
